Experimental data reported in IntAct's records for PubMed 9012831.

B1: Tyrosine-protein kinase BTK (Homo sapiens), Q06187 (parent)
chain: MAAVILESIFLKRSQQKKKTSPLNFKKRLFLLTVHKLSYYEYDFERGRRGSKKGSIDVEKITCVETVVPEKNPPPERQIPRRGEESSEMEQISIIERFPYPFQVVYDEGPLYVFSPTEELRKRWIHQLKNVIRYNSDLVQKYHPCFWIDGQYLCCSQTAKNAMGCQILENRNGSLKPGSSHRKTKKPLPPTPEEDQILKKPLPPEPAAAPVSTSELKKVVALYDYMPMNANDLQLRKGDEYFILEESNLPWWRARDKNGQEGYIPSNYVTEAEDSIEMYEWYSKHMTRSQAEQLLKQEGKEGGFIVRDSSKAGKYTVSVFAKSTGDPQGVIRHYVVCSTPQSQYYLAEKHLFSTIPELINYHQHNSAGLISRLKYPVSQQNKNAPSTAGLGYGSWEIDPKDLTFLKELGTGQFGVVKYGKWRGQYDVAIKMIKEGSMSEDEFIEEAKVMMNLSHEKLVQLYGVCTKQRPIFIITEYMANGCLLNYLREMRHRFQTQQLLEMCKDVCEAMEYLESKQFLHRDLAARNCLVNDQGVVKVSDFGLSRYVLDDEYTSSVGSKFPVRWSPPEVLMYSKFSSKSDIWAFGVLMWEIYSLGKMPYERFTNSETAEHIAQGLRLYRPHLASEKVYTIMYSCWHEKADERPTFKILLSNILDVMDEES

Variants of: B1
Conditions: with gtf2i_human GTF2I

Effect of a mutation on the interaction, decreasing interaction:
Y223F
R307K
Y551F
